Target: FabL9, soluble purified Fab
Test: ELISA

In the case of “GluA4_(flip) ligand-binding domain (LBD), rat (domain or fragment)”, the IC50 is reported as 260 nM.

— article PMC5145273
